According to publication PMC7954794, “Protein context shapes the specificity of SH3 domain-mediated interactions in vivo” (Nature Communications, 2021):

B1: Bem1 WT (protein, UniProt P29366 1-551, looked up)
Bud emergence protein 1: MLKNFKLSKRDSNGSKGRITSADISTPSHDNGSVIKHIKTVPVRYLSSSSTPVKSQRDSSPKNRHNSKDITSPEKVIKAKYSYQAQTSKELSFMEGEFFYVSGDEKDWYKASNPSTGKEGVVPKTYFEVFDRTKPSSVNGSNSSSRKVTNDSLNMGSLYAIVLYDFKAEKADELTTYVGENLFICAHHNCEWFIAKPIGRLGGPGLVPVGFVSIIDIATGYATGNDVIEDIKSVNLPTVQEWKSNIARYKASNISLGSVEQQQQQSITKPQNKSAKLVDGELLVKASVESFGLEDEKYWFLVCCELSNGKTRQLKRYYQDFYDLQVQLLDAFPAEAGKLRDAGGQWSKRIMPYIPGPVPYVTNSITKKRKEDLNIYVADLVNLPDYISRSEMVHSLFVVLNNGFDREFERDENQNNIKTLQENDTATFATASQTSNFASTNQDNTLTGEDLKLNKKLSDLSLSGSKQAPAQSTSGLKTTKIKFYYKDDIFALMLKGDTTYKELRSKIAPRIDTDNFKLQTKLFDGSGEEIKTDSQVSNIIQAKLKISVHDI
B2: Bzz1 WT (protein, UniProt P38822 1-633, looked up)
Protein BZZ1: MSADLSIGNEIKDSFKETHKWVQNNLKWLKDIEQFYRERAKLEKDYSERLSRLSAEYFNKKSSTSVPISVGDTPTTTPGSIEAAGVVAWNEILSQTDMISKDHDQLSTDFENHVANQLSGLFTKLDMTLSKINGFNNDMVNKKDNIYHELEKAKKDYDEACSTMEMARNRYTKASNDRNKKKLDEKEMEMNKCKNEYLIKINQANRTKDKYYFQDVPEVLDLLQDVNEAKTLFLNDLWLKAASVENDLGANVSKRLQAANSVVKQNKPSLNTAIFIKHNLKNWKEPQDFVYKPSPVWHDDEKFAVPSSLEVEDLRIKLAKAENDYNSLQDKTQNELSKLSTLNKIKHEMKTNEDNINATKFYDTLKEYLNVVSPFTSHETLKLQAEVQIESIQNNVPEEYDLSTDNIDLSKTKKKSGIFSKFKHNILNVDSKPSSGGSTGNGNGGPLHITSLFNTSRRTRLGSAPNNAGEDSDNNSIRTTSTNNTKKTTQNSSDDGKNKVLYAYVQKDDDEITITPGDKISLVARDTGSGWTKINNDTTGETGLVPTTYIRISSAATVKANDRGPAPEVPPPRRSTLPVRTMEAIYAYEAQGDDEISIDPGDIITVIRGDDGSGWTYGECDGLKGLFPTSYCK
B3: Sla1 1|2|3: WT Sla1 (Sla1-GFP in imaging) (protein, UniProt P32790 1-1244, looked up)
Actin cytoskeleton-regulatory …: MTVFLGIYRAVYAYEPQTPEELAIQEDDLLYLLQKSDIDDWWTVKKRVIGSDSEEPVGLVPSTYIEEAPVLKKVRAIYDYEQVQNADEELTFHENDVFDVFDDKDADWLLVKSTVSNEFGFIPGNYVEPENGSTSKQEQAPAAAEAPAATPAAAPASAAVLPTNFLPPPQHNDRARMMQSKEDQAPDEDEEGPPPAMPARPTATTETTDATAAAVRSRTRLSYSDNDNDDEEDDYYYNSNSNNVGNHEYNTEYHSWNVTEIEGRKKKKAKLSIGNNKINFIPQKGTPHEWSIDKLVSYDNEKKHMFLEFVDPYRSLELHTGNTTTCEEIMNIIGEYKGASRDPGLREVEMASKSKKRGIVQYDFMAESQDELTIKSGDKVYILDDKKSKDWWMCQLVDSGKSGLVPAQFIEPVRDKKHTESTASGIIKSIKKNFTKSPSRSRSRSRSKSNANASWKDDELQNDVVGSAAGKRSRKSSLSSHKKNSSATKDFPNPKKSRLWVDRSGTFKVDAEFIGCAKGKIHLHKANGVKIAVAADKLSNEDLAYVEKITGFSLEKFKANDGSSSRGTDSRDSERERRRRLKEQEEKERDRRLKERELYELKKARELLDEERSRLQEKELPPIKPPRPTSTTSVPNTTSVPPAESSNNNNSSNKYDWFEFFLNCGVDVSNCQRYTINFDREQLTEDMMPDINNSMLRTLGLREGDIVRVMKHLDKKFGRENIASIPTNATGNMFSQPDGSLNVATSPETSLPQQLLPQTTSPAQTAPSTSAETDDAWTVKPASKSESNLLSKKSEFTGSMQDLLDLQPLEPKKAAASTPEPNLKDLEPVKTGGTTVPAAPVSSAPVSSAPAPLDPFKTGGNNILPLSTGFVMMPMITGGDMLPMQRTGGFVVPQTTFGMQSQVTGGILPVQKTGNGLIPISNTGGAMMPQTTFGAAATVLPLQKTGGGLIPIATTGGAQFPQTSFNVQGQQQLPTGSILPVQKTANGLISANTGVSMPTVQRTGGTMIPQTSFGVSQQLTGGAMMTQPQNTGSAMMPQTSFNAVPQITGGAMMPQTSFNALPQVTGGAMMPLQRTGGALNTFNTGGAMIPQTSFSSQAQNTGGFRPQSQFGLTLQKTGGIAPLNQNQFTGGAMNTLSTGGVLQQQQPQTMNTFNTGGVMQELQMMTTFNTGGAMQQPQMMNTFNTDGIMQQPQMMNTFNTGGAMQQPQQQALQNQPTGFGFGNGPQQSRQANIFNATASNPFGF
modifications: GFP tag in imaging

What was measured:
[1] = system: SH3-deleted bait proteins (1xFLAG); assay: Western blot expression level of SH3-deleted baits (Fig. S1F-G); assay type: cell-based, Saccharomyces cerevisiae; conditions: Western blot Flag signal, 1xFLAG-tagged WT or SH3-deleted bait; sheet FigS1F-G
Experimental: Precultures of yeast cells expressing baits fused with the DHFR F[1,2]-FLAG were grown overnight at 30 °C with agitation in synthetic complete medium. The next day, cells were expanded in synthetic complete medium to reach their exponential phase (OD600 of around 1.0), pelleted, and frozen at −80 °C. The equivalent of fifty OD600 of cells was resuspended in ice-cold yeast lysis buffer (10 mM Tris-HCl pH 7.4, 150 mM NaCl, 0.5 mM EDTA (Millipore Sigma), 1% Triton X-100 (Millipore Sigma), and one cOmplete Mini Protease Inhibitor Cocktail (Millipore Sigma) per 10 mL) with […] glass beads (Millipore Sigma) and disrupted at 4 °C by 10 cycles of 2 min vortexing and 2 min cooldown. The equivalent of […] of lysed cells was used for the immunoprecipitation of the bait proteins using FLAG-M2 agarose beads (Millipore Sigma). The beads were incubated with the cell lysates for 120 min at 4 °C with a slow rotation, followed by three washes with the yeast lysis buffer.
Protein extracts and affinity-purified baits from yeast and human lysed cells were migrated on 10% polyacrylamide gels. The separated proteins were then transferred to nitrocellulose membranes. Validation of correct protein loading was done with ponceau staining of the membranes. Before the primary antibody incubations, membranes were blocked in 5% milk. Protein signals were detected on an Amersham Imager 600RGB (GE Healthcare) following the incubation of the membranes with the appropriate HRP-conjugated secondary antibodies and the Clarity Western ECL Substrate (Bio-Rad). The antibodies used in this study are M2-HRP (A8592, Sigma, 1/50,000), rabbit anti-FLAG (F7425, Sigma, 1/1000), PAK (SC-881, Santa Cruz, 1/200), p130cas/BCAR1 (SC-860, Santa Cruz, 1/200), actin (Cell Signaling Technology, 1/2000), anti-mouse HRP (Cell Signaling Technology, 1/10,000) and anti-rabbit HRP (Cell Signaling Technology, 1/10,000). The quantification of the WB signals was performed with the Amersham Imager 600 analysis software (GE Healthcare).

Sla1-GFP foci = assay: Live imaging of endocytosis, Sla1-GFP foci tracking (Fig. 4E-H, S5E-I); assay type: cell-based, Saccharomyces cerevisiae; conditions: for mean effective distance towards centroid: n 3286
Experimental: Overnight cultures of Sla1-GFP cells were diluted to an OD600 of 0.15 and grown in synthetic complete medium without tryptophan until they reached an OD600 of ~0.4–0.5 at 30 °C. The cells were then seeded on concanavalin A 0.05 mg/mL (Millipore Sigma) coated 8-well glass-bottom chamber slides (Sarstedt). Image acquisition was performed using a Perkin Elmer UltraVIEW confocal spinning disk unit attached to a Nikon Eclipse TE2000-U inverted microscope equipped with a Plan Apochromat DIC H 100×/1.4 oil objective (Nikon), and a Hamamatsu Orca Flash 4.0 LT + camera. Imaging was done at 25 °C in an environmental chamber. The software NIS-Elements (Nikon) was used for image capture. For each field, one brightfield and a series of fluorescence (GFP) images were taken. Cells were excited with a 488 nm laser and emission was filtered with a 530/630 nm filter. GFP time laps were acquired continuously at a rate of 1 frame/sec for 3 min.
Bright-field images were used to segment cells using YeastSpotter[60]. Cells were filtered based on circularity, solidity, and the normalized difference between minor and major axis lengths to remove poorly detected cells. Out-of-focus cells were also filtered out based on size and brightness. The centroids of the segmented cells were used to identify the locations of each cell in the image using Scikit-Image[61]. The location of each cell was used to isolate individual cell time-frames of fluorescence (GFP) images. Each cell time frame of the fluorescence images was processed through a python-based single-particle tracking tool—Trackpy[62]. Trackpy detected the locations of Sla1-GFP positive foci in each frame and linked them together to provide particle-wise trajectories. Trajectories detected in less than ten frames were considered spurious and were filtered out. Segments of the trajectories spuriously indicating movement of the particles back to the cell membrane were trimmed. The preprocessed trajectories of the particles were then used for the calculation of distances using the spatial distance module of “SciPy”[63]. The python-based code used for the analysis of microscopy images is included in the endocytosis module of “htsimaging” package.

[2] = Fig4H,S5G, SLA1 SH3-shuffled or -deleted strain

Molecule | Flag [1] | complete (Sla1-GFP foci; [2]) | incomplete (Sla1-GFP foci; [2]) | mean effective distance towards centroid (Sla1-GFP foci; time 0) | mean effective distance towards centroid (Sla1-GFP foci; time 1) | mean effective distance towards centroid (Sla1-GFP foci; time 2) | mean effective distance towards centroid (Sla1-GFP foci; time 3) | mean effective distance towards centroid (Sla1-GFP foci; time 4)
B1 | 104455 | – | – | – | – | – | – | –
B2 | 215050 | – | – | – | – | – | – | –
B3 | – | 23.1408 | 3.31 | 0 | 1.1628 | 1.132 | 2.413 | 3.293
